Measurements as given in patent publication US5728561.

Tests used:
[1] = molecular target: E1-beta of plasmid pCD705, with the C-terminal part of the E1-beta open reading frame in the wrong orientation (Streptomyces avermitilis)
[2] = molecular target: E1-beta subunit of S. avermitilis BCKDH (Streptomyces avermitilis)

- E1 BCKDH specific activity [1]: 0.5 pmol/min/mg
- E1 BCKDH specific activity [2]: 13.7 pmol/min/mg
Substance: E1-alpha subunit of S. avermitilis BCKDH (enzyme)
